Ends that are not written are not given here. * marks the point of attachment. Palmitoyl = CCCCCCCCCCCCCCCC(=O)*
B1: CXCR4 i4 loop compound 107 (peptide)
peptide: GAKFKTSAQHALTSVSRGSSLKILSKGKRGGHSSVST-NH2
modifications: not fully specified (N-terminus); also: dual lipid, backbone lipid not given here
B2: CXCR4 i4 loop compound 112 (peptide)
peptide: Palmitoyl-GAKFKTSAQHALTSVSRGSSLKILSGGK-NH2
SMILES: CCCCCCCCCCCCCCCC(=O)NCC(=O)N[C@@H](C)C(=O)N[C@@H](CCCCN)C(=O)N[C@@H](Cc1ccccc1)C(=O)N[C@@H](CCCCN)C(=O)N[C@H](C(=O)N[C@@H](CO)C(=O)N[C@@H](C)C(=O)N[C@@H](CCC(N)=O)C(=O)N[C@@H](Cc1c[nH]cn1)C(=O)N[C@@H](C)C(=O)N[C@@H](CC(C)C)C(=O)N[C@H](C(=O)N[C@@H](CO)C(=O)N[C@H](C(=O)N[C@@H](CO)C(=O)N[C@@H](CCCNC(=N)N)C(=O)NCC(=O)N[C@@H](CO)C(=O)N[C@@H](CO)C(=O)N[C@@H](CC(C)C)C(=O)N[C@@H](CCCCN)C(=O)N[C@H](C(=O)N[C@@H](CC(C)C)C(=O)N[C@@H](CO)C(=O)NCC(=O)NCC(=O)N[C@@H](CCCCN)C(N)=O)[C@@H](C)CC)C(C)C)[C@@H](C)O)[C@@H](C)O
B3: CXCR4 i4 loop compound 109 (peptide)
peptide: Palmitoyl-GAKFKTSAQHALTSVSRGSSLKILSKGKRGGHSSVST-NH2
SMILES: CCCCCCCCCCCCCCCC(=O)NCC(=O)N[C@@H](C)C(=O)N[C@@H](CCCCN)C(=O)N[C@@H](Cc1ccccc1)C(=O)N[C@@H](CCCCN)C(=O)N[C@H](C(=O)N[C@@H](CO)C(=O)N[C@@H](C)C(=O)N[C@@H](CCC(N)=O)C(=O)N[C@@H](Cc1c[nH]cn1)C(=O)N[C@@H](C)C(=O)N[C@@H](CC(C)C)C(=O)N[C@H](C(=O)N[C@@H](CO)C(=O)N[C@H](C(=O)N[C@@H](CO)C(=O)N[C@@H](CCCNC(=N)N)C(=O)NCC(=O)N[C@@H](CO)C(=O)N[C@@H](CO)C(=O)N[C@@H](CC(C)C)C(=O)N[C@@H](CCCCN)C(=O)N[C@H](C(=O)N[C@@H](CC(C)C)C(=O)N[C@@H](CO)C(=O)N[C@@H](CCCCN)C(=O)NCC(=O)N[C@@H](CCCCN)C(=O)N[C@@H](CCCNC(=N)N)C(=O)NCC(=O)NCC(=O)N[C@@H](Cc1c[nH]cn1)C(=O)N[C@@H](CO)C(=O)N[C@@H](CO)C(=O)N[C@H](C(=O)N[C@@H](CO)C(=O)N[C@H](C(N)=O)[C@@H](C)O)C(C)C)[C@@H](C)CC)C(C)C)[C@@H](C)O)[C@@H](C)O
B4: CXCR4 i2 loop compound 83 (peptide)
peptide: Palmitoyl-HATNSQRPRKLLAEKV-NH2
SMILES: CCCCCCCCCCCCCCCC(=O)N[C@@H](Cc1c[nH]cn1)C(=O)N[C@@H](C)C(=O)N[C@H](C(=O)N[C@@H](CC(N)=O)C(=O)N[C@@H](CO)C(=O)N[C@@H](CCC(N)=O)C(=O)N[C@@H](CCCNC(=N)N)C(=O)N1CCC[C@H]1C(=O)N[C@@H](CCCNC(=N)N)C(=O)N[C@@H](CCCCN)C(=O)N[C@@H](CC(C)C)C(=O)N[C@@H](CC(C)C)C(=O)N[C@@H](C)C(=O)N[C@@H](CCC(=O)O)C(=O)N[C@@H](CCCCN)C(=O)N[C@H](C(N)=O)C(C)C)[C@@H](C)O
B5: CXCR4 i2 loop compound 82 (peptide)
peptide: Palmitoyl-HATNSQRPRKLLAEK-NH2
SMILES: CCCCCCCCCCCCCCCC(=O)N[C@@H](Cc1c[nH]cn1)C(=O)N[C@@H](C)C(=O)N[C@H](C(=O)N[C@@H](CC(N)=O)C(=O)N[C@@H](CO)C(=O)N[C@@H](CCC(N)=O)C(=O)N[C@@H](CCCNC(=N)N)C(=O)N1CCC[C@H]1C(=O)N[C@@H](CCCNC(=N)N)C(=O)N[C@@H](CCCCN)C(=O)N[C@@H](CC(C)C)C(=O)N[C@@H](CC(C)C)C(=O)N[C@@H](C)C(=O)N[C@@H](CCC(=O)O)C(=O)N[C@@H](CCCCN)C(N)=O)[C@@H](C)O
B6: CXCR4 i4 loop compound 114 (peptide)
peptide: Palmitoyl-GAKFKTSAQHALTSVSRGSSLKILSK-NH2
SMILES: CCCCCCCCCCCCCCCC(=O)NCC(=O)N[C@@H](C)C(=O)N[C@@H](CCCCN)C(=O)N[C@@H](Cc1ccccc1)C(=O)N[C@@H](CCCCN)C(=O)N[C@H](C(=O)N[C@@H](CO)C(=O)N[C@@H](C)C(=O)N[C@@H](CCC(N)=O)C(=O)N[C@@H](Cc1c[nH]cn1)C(=O)N[C@@H](C)C(=O)N[C@@H](CC(C)C)C(=O)N[C@H](C(=O)N[C@@H](CO)C(=O)N[C@H](C(=O)N[C@@H](CO)C(=O)N[C@@H](CCCNC(=N)N)C(=O)NCC(=O)N[C@@H](CO)C(=O)N[C@@H](CO)C(=O)N[C@@H](CC(C)C)C(=O)N[C@@H](CCCCN)C(=O)N[C@H](C(=O)N[C@@H](CC(C)C)C(=O)N[C@@H](CO)C(=O)N[C@@H](CCCCN)C(N)=O)[C@@H](C)CC)C(C)C)[C@@H](C)O)[C@@H](C)O
B7: CXCR4 i4 loop compound 110 (peptide)
peptide: Palmitoyl-GAKFKTSAQHALTSVSRGSSLKILSKGKRGGSCFH-NH2
SMILES: CCCCCCCCCCCCCCCC(=O)NCC(=O)N[C@@H](C)C(=O)N[C@@H](CCCCN)C(=O)N[C@@H](Cc1ccccc1)C(=O)N[C@@H](CCCCN)C(=O)N[C@H](C(=O)N[C@@H](CO)C(=O)N[C@@H](C)C(=O)N[C@@H](CCC(N)=O)C(=O)N[C@@H](Cc1c[nH]cn1)C(=O)N[C@@H](C)C(=O)N[C@@H](CC(C)C)C(=O)N[C@H](C(=O)N[C@@H](CO)C(=O)N[C@H](C(=O)N[C@@H](CO)C(=O)N[C@@H](CCCNC(=N)N)C(=O)NCC(=O)N[C@@H](CO)C(=O)N[C@@H](CO)C(=O)N[C@@H](CC(C)C)C(=O)N[C@@H](CCCCN)C(=O)N[C@H](C(=O)N[C@@H](CC(C)C)C(=O)N[C@@H](CO)C(=O)N[C@@H](CCCCN)C(=O)NCC(=O)N[C@@H](CCCCN)C(=O)N[C@@H](CCCNC(=N)N)C(=O)NCC(=O)NCC(=O)N[C@@H](CO)C(=O)N[C@@H](CS)C(=O)N[C@@H](Cc1ccccc1)C(=O)N[C@@H](Cc1c[nH]cn1)C(N)=O)[C@@H](C)CC)C(C)C)[C@@H](C)O)[C@@H](C)O

Columns and labels:
[1] = target: T1, CXCR4 receptor (human, UniProt P61073 1-352); test: cell-based or functional assay
[2] = target: T1, CXCR4 receptor; test: cell-based or functional assay; remark: listed apart in the source

T1 sequence (P61073 whole entry): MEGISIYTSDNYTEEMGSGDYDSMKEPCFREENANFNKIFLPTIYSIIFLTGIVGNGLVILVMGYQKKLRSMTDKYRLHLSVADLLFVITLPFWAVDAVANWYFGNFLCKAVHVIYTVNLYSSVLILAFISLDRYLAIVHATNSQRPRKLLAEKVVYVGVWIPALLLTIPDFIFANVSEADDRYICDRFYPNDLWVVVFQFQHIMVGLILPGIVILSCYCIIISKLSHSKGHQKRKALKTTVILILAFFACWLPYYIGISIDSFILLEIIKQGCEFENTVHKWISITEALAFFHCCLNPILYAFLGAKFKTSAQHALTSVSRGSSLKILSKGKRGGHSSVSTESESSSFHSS

| Binder | AUC (% of Vehicle), CHTX, CEM, 1.0 uM [1] | Max (% of Vehicle), CHTX, CEM, 1.0 uM [1] | Peak Ratio, CHTX, CEM, 1.0 uM [1] | AUC (% of vehicle), chemotaxis, SUPB-15, 1.0 uM [2] | Max (% of vehicle), chemotaxis, SUPB-15, 1.0 uM [2] | Peak Ratio, chemotaxis, SUPB-15, 1.0 uM [2] |
| --- | --- | --- | --- | --- | --- | --- |
| B1 | 57.3 % of Vehicle | 49.5 % of Vehicle | 5 |  |  |  |
| B2 | 48.9 % of Vehicle | 54.7 % of Vehicle | 0.2 |  |  |  |
| GAKFKTSAQHALTSVSRGSSLKILSKGKRG-NH2 (not fully specified (N-terminus)) [CXCR4 i4 loop compound 108] | 89.5 % of Vehicle | 83.9 % of Vehicle | 5 |  |  |  |
| B3 | 49.3 % of Vehicle | 49.8 % of Vehicle | 0.04 |  |  |  |
| B4 |  |  |  | 126 % of vehicle | 110 % of vehicle | 1 |
| B5 |  |  |  | 125 % of vehicle | 126 % of vehicle | 0.2 |
| B6 | 34.2 % of Vehicle | 63.1 % of Vehicle | 1 |  |  |  |
| B7 | 41 % of Vehicle | 42.1 % of Vehicle | 1 |  |  |  |

— US20130210709A1 (ANCHOR THERAPEUTICS, published 2013)
